Experimental data taken from patent US20110206696A1, “METHODS FOR INHIBITING BONE LOSS AND BONE METASTASIS” (THE WASHINGTON UNIVERSITY, priority 2010, published 2011).

What was measured:
[1] = molecular target: T1, CD47 (Homo sapiens, UniProt Q08722); details: cited from earlier work
[2] = molecular target: SIRP (Homo sapiens, UniProt P78324); details: cited from earlier work
[3] = molecular target: T1, CD47; details: cited from earlier work; remark: listed apart in the source
[4] = test system: CD47−/− macrophages; assay: In vitro osteoclast differentiation, actin ring and bone resorption assays at high RANKL dose; assay type: cell-based, mouse; details: RANKL increased two-fold to 100 ng/ml; 50 ng/ml M-CSF
Protocol: A. FACS analysis on WT and CD47-/- total bone marrow. WT and CD47-/- total bone marrow was stained for CD47 and F4/80. B. QPCR graph showing induction of CD47 transcript over the 7-day course of OC differentiation. C. Representative images of day 5 OCs cultured on bone and stained for TRAP (left panel) and cultured on bovine bone and stained for actin rings (right panel) in the presence of 50 ng/ml of M-CSF and 50 ng/ml or 100 ng/ml of RANKL are shown. D. Representative images of day 5 OCs cultured on bone and stained for resorption lacunae in the presence of 50 ng/ml of M-CSF and either 50 ng/ml of RANKL (left panel) and 100 ng/ml of RANKL (right panel) are shown. E. The pit (resorption lacunae) area was measured by histomorphometry. 50 ng/ml RANKL (p=0.04), 100 ng/ml RANKL (p=0.18). To investigate if the OC defect is cell-autonomous in CD474-/- mice, it was first determined if macrophages or OC precursors were decreased in CD47-/- bone marrow. WT and CD47-/- whole bone marrow were stained with CD47-FITC as control and F4/80 as a macrophage marker and carried out flow cytometry. No significant difference in F4/80+cells in CD47-/- bone marrow compared to WT control was observed (FIG. 3A). To test the differentiation of macrophages to OCs, we cultured whole bone marrow in M-CSF alone for 3 days to enrich for macrophages. […]

[5] = test system: CD47−/− mice; assay: In vivo RANKL injections, serum CTX and calvarial TRAP staining; set-up: species or system mouse; details: RANKL injected subperiostally into midline calvaria of 8-week old mice, once a day for 5 days
Protocol: A. 100 μg of RANKL was delivered subperiostally onto the midline calvaria of WT (n=5) and CD47−/− (n=5) mice. Serum CTX was measured before and after RANKL injections. WT vs. CD47−/− pre-RANKL p<0.01, WT vs. CD47−/− post-RANKL p=0.74, WT pre-RANKL vs. post-RANKL p=0.03, CD47−/− pre-RANKL vs. post-RANKL p<0.01. B. Representative images of TRAP stained calvarial sections. Arrows point to recruited OCs.
We measured serum CTX pre and post-RANKL injections in these mice. Pre-RANKL injection, CD47−/− mice had lower serum CTX as we have shown before (FIG. 4A). […] Furthermore, direct visualization of OC recruitment by TRAP staining on histological sections of calvarial bone in WT and CD47−/− mice confirmed the CTX results (FIG. 4B). We conclude that a high dose of RANKL rescued the cell-autonomous OC defect in CD47−/− mice.
CTX was measured from WT or CD47−/− mouse fasting serum by using a CTX ELISA system (Nordic Bioscience Diagnostics, Herlev, Denmark).
100 μg of RANKL in a volume of 40 μl was injected subperiostially in the midline calvaria in 8 week-old mice once a day for 5 consecutive days. On the sixth day, serum was collected, mice were sacrificed and the calvarial bone was isolated. TRAP staining was performed on fixed, decalcified and paraffin-embedded calvarial bone.

T1 sequence (Q08722 19-323, species assumed): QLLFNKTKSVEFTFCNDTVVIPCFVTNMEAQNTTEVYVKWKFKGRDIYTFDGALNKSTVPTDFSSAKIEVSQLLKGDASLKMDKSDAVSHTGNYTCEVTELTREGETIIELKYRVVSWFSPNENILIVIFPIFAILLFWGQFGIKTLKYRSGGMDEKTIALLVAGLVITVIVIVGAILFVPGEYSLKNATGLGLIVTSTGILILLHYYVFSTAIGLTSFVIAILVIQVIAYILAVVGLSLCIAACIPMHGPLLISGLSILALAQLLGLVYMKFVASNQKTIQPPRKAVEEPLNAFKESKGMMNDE
Sequence of SIRP (P78324 31-504, species assumed): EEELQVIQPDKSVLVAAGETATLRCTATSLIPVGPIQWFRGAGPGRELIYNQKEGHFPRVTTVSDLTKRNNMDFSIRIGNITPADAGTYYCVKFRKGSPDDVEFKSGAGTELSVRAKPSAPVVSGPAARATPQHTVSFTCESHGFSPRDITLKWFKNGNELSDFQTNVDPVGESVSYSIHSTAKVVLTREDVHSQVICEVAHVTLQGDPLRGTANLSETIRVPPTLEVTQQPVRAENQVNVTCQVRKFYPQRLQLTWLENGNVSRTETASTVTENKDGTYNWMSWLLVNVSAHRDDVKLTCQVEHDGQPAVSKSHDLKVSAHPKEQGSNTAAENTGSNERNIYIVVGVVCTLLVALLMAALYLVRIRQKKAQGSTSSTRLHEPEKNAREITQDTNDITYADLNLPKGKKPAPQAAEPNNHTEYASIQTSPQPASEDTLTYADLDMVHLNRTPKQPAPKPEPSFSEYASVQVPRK

## CERVIGTGWVRC
[1]
  CD47 activity / signaling: inhibit CD47 activity in vitro
[2]
  Binding to SIRP: binds to SIRP

## IGWKDFTAYR
[3]
  Binding to CD47: found to bind CD47

## p7N3: CD47-binding peptide from the C-terminal module of TSP1, FIRWMYEGKK
[1]
  CD47 activity / signaling: blocked (or disrupted) CD47 signaling

B1: RANKL: receptor activator of nuclear factor-KB ligand, cytokine for differentiation of macrophages into osteoclasts (protein, UniProt O14788 140-317, looked up)
Tumor necrosis factor ligand …: IRAEKAMVDGSWLDLAKRSKLEAQPFAHLTINATDIPSGSHKVSLSSWYHDRGWAKISNMTFSNGKLIVNQDGFYYLYANICFRHHETSGDLATEYLQLMVYVTKTSIKIPSSHTLMKGGSTKYWSGNSEFHFYSINVGGFFKLRSGEEISIEVSNPSLLDPDQDATYFGAFKVRDID
modifications: GST tag
[4]
  OC differentiation of CD47−/− cells: OC differentiation defect was largely rescued
[5]
  OC activation as measured by serum CTX, WT vs CD47−/− mice after RANKL: not significantly different
